In patent publication US9315544B2, “Method of treating eosinophilia by administering an immunomodulating peptide” (National Tsing Hua University, priority 2012, dated 2016):

Key:
Format in all cases: cell-based
CCL11 = assay: Cytokine mRNA expression analysis by quantitative real-time PCR (CCL11); conditions: 5 μM ECP, Beas-2B cells, relative to mock-treated
Method: (§1) FIG. 1A-1B illustrates immunomodulatory effect of CMP on transcription of cytokine. Beas-2B cells were starved with serum free medium for 24 h, followed by stimulation with refold 5 μM ECP or 5 μM CMP or co-treatment with 5 μM ECP and 5 μM CMP at 37° C. for (A) 6 h and (B) 12 h, respectively. The mRNA quantities of CCL11, CCL24 and CCL26 were determined by real-time PCR. Beas-2B cells without protein treatment were used as control. […] The data represented at least three independent experiments and the error bar was shown as standard deviation (SD).
For inflammatory cytokine expression analysis, Beas-2B cells were stimulated with three different conditions: 1) 5 μM ECP, 2) 5 μM CMP and 3) co-incubated with 5 μM ECP and 5 μM CMP at 37° C. for 6 and 12 h. After incubation, total RNAs were extracted with RNA TRIzol reagent (Invitrogen, Inc) and reverse transcribed with MoMLV-reverse transcriptase (Promega, Madison, Wis.). SYBR Green-based quantitative real-time PCR will be used to quantify the gene of interest, relative expression ratios of genes of interest were normalized to glyceraldehyde-3-phosphate dehydrogenase (GAPDH) transcripts. Changes in cytokine expression were measured by quantitative real-time PCR (qRT-PCR) employing the StepOne™ amplification and detection system (Life Technologies Corporation). Data were analyzed by application of the StepOne™ quantification program software (version 2.22, Life Technologies Corporation) and expressed as means±S.D. Significance analysis was carried out by a two-sample unequal variance t-test with two-tailed distribution (post test). Significance was set as P<0.05.
ECP, the best known marker protein of asthma, is involved in triggering cytokine expression in bronchial epithelial cells. Real-time PCR analysis was carried out to quantify expression levels of indicated cytokines upon treatment with recombinant ECP in the presence and absence of CMP Bronchial epithelial Beas-2B cells were separately cultured in serum-free medium in the presence of 5 μM ECP, 5 μM CMP and both 5 μM ECP and 5 μM CMP for 6 and 12 h to monitor cytokine and chemokine gene modulation using real-time quantitative PCR. Untreated Beas-2B cells incubated at the same condition for 6 h and 12 h were used as negative controls. Here variation of gene expression levels of chemokines including CCL11, CCL24 and CCL26 was analyzed.

CCL26 = assay: Cytokine mRNA expression analysis by quantitative real-time PCR (CCL26); conditions: 5 μM ECP, Beas-2B cells, 6 h, relative to mock-treated
Method: as §1
For inflammatory cytokine expression analysis, Beas-2B cells were stimulated with three different conditions: 1) 5 μM ECP, 2) 5 μM CMP and 3) co-incubated with 5 μM ECP and 5 μM CMP at 37° C. for 6 and 12 h. […] SYBR Green-based quantitative real-time PCR will be used to quantify the gene of interest, relative expression ratios of genes of interest were normalized to glyceraldehyde-3-phosphate dehydrogenase (GAPDH) transcripts. Changes in cytokine expression were measured by quantitative real-time PCR (qRT-PCR) employing the StepOne™ amplification and detection system (Life Technologies Corporation). […]
ECP, the best known marker protein of asthma, is involved in triggering cytokine expression in bronchial epithelial cells. […] Here variation of gene expression levels of chemokines including CCL11, CCL24 and CCL26 was analyzed.

human CCL11 = assay: CCL11 protein release from Beas-2B cells by ELISA; conditions: 37° C., 24 h
Method: FIG. 2 illustrates CCL11 expression in CMP and ECP co-treated Beas-2B cells. Beas-2B cells were starved with serum free medium for 24 h, followed by stimulation with ECP (column 2). Cells were stimulated with PBS as negative control (column 1) and ECP in the absence of CMP (column 2) or presence of 1 μM (column 3), 2.5 μM (column 4), 5 μM (column 5), 10 μM (column 6) CMP at 37° C. for 24 h. CCL11 protein level was determined by ELISA kit employing CCL11 antibody. The data represented mean±SD (standard deviation) of at least three independent experiments. ***, p<0.001; **, p<0.01
FIG. 3 illustrates CCL11 expression in CMP and IL-4 co-treated Beas-2B cells. Beas-2B cells were starved with serum free medium for 24 h, followed by stimulation with PBS (column 1) or 10 ng/mL IL-4 (column 2-7). Cells were stimulated with 10 ng/mL IL-4 in the absence […] or presence of 1 μM (column 3), 2.5 μM (column 4), 5 μM (column 5) and 10 μM (column 6) CMP at 37° C. for 24 h. CCL11 protein level was determined by ELISA kit employing CCL11 antibody. The data represented mean±SD (standard deviation) of at least three independent experiments. ***, p<0.001 (Stimulation with IL-4 compared with PBS treated Beas-2B cells). *, p<0.05 (Stimulation with indicated concentrations of CMP compared with IL-4 treated Beas-2B cells).
CCL11 ELISA kit (R&D) is an in vitro enzyme-linked immunosorbent assay for quantitative determination of human CCL11 concentration in cell culture supernatants. This assay employed an antibody specific for human CCL11 coated on a 96-well plate. The wells were incubated with 50 μL standard or sample for 2.5 hours at room temperature. After washing with 1× wash solution five times, 200 μL of CCL11 conjugate were added into each wells for 1 h. After washing, 100 μL TMB One-Step Substrate Reagent were added into each wells at room temperature for 30 minutes. 50 μL of Stop Solution were added into each wells and read at 450 nm by spectrophotometer immediately. Limit of detection in the assay was 5 pg/mL.
To investigate whether CMP influenced ECP-mediated CCL11 expression, Beas-2B cells were separately stimulated with 5 μM ECP in the absence of CMP and in the presence of 1 μM, 2.5 μM, 5 μM and 10 μM CMP at 37° C. for 24 h.
To further investigate whether CMP influenced CCL11 production from other stimulation in Beas-2B cells, serum-deprived Beas-2B cells were stimulated with 10 ng/mL IL-4, a dominant cytokine regulating CCL11, alone or in the presence of CMP at concentrations 1, 2.5, 5 and 10 μM at 37° C. for 24 h.

| Molecule | CCL11 gene expression level increase (CCL11; 6 h) | CCL11 gene expression level increase (CCL11; 12 h) | CCL26 gene expression level increase (CCL26) | CCL11 release (human CCL11; 5 μM ECP alone, Beas-2B cells) | CCL11 release (human CCL11; 10 ng/mL IL-4 alone, serum-deprived Beas-2B cells) |
| --- | --- | --- | --- | --- | --- |
| ECP: eosinophil cationic protein, recombinant; marker protein of asthma used as stimulus (protein, UniProt P12724 28-160, looked up) Eosinophil cationic protein: RPPQFTRAQWFAIQHISLNPPRCTIAMRAINNYRWRCKNQNTFLRTTFANVVNVCGNQSIRCPHNRTLNNCHRSRFRVPLLHCDLINPGAQNISNCTYADRPGRRFYVVACDNRDPRDSPRYPVVPVHLDTTI | 9 fold | 2.8 fold | 2 fold | 17.8 pg/mL |  |
| IL-4: a dominant cytokine regulating CCL11, used as stimulus (protein, UniProt P05112 25-153, looked up) Interleukin-4: HKCDITLQEIIKTLNSLTEQKTLCTELTVTDIFAASKNTTEKETFCRAATVLRQFYSHHEKDTRCLGATAQQFHRHKQLIRFLKRLDRNLWGLAGLNSCPVKEANQSTLENFLERLKTIMREKYSKCSS |  |  |  |  | 73.2 pg/mL |
